Reference: patent US20240067696A1 (ZEALAND PHARMA A S, published 2024)
Non-standard residues stand in square brackets, D forms with d. Dab = NCC[C@H](N)C(=O)O; Dap = NC[C@H](N)C(=O)O; Aib = CC(C)(N)C(=O)O

B1: Compound 41 (peptide)
peptide: H-HS[Dap](Ac)GTFTSDYSKYLD[Aib]ARAEEFVKWLEST-NH2
SMILES: CC(=O)NC[C@H](NC(=O)[C@H](CO)NC(=O)[C@@H](N)Cc1c[nH]cn1)C(=O)NCC(=O)N[C@H](C(=O)N[C@@H](Cc1ccccc1)C(=O)N[C@H](C(=O)N[C@@H](CO)C(=O)N[C@@H](CC(=O)O)C(=O)N[C@@H](Cc1ccc(O)cc1)C(=O)N[C@@H](CO)C(=O)N[C@@H](CCCCN)C(=O)N[C@@H](Cc1ccc(O)cc1)C(=O)N[C@@H](CC(C)C)C(=O)N[C@@H](CC(=O)O)C(=O)NC(C)(C)C(=O)N[C@@H](C)C(=O)N[C@@H](CCCNC(=N)N)C(=O)N[C@@H](C)C(=O)N[C@@H](CCC(=O)O)C(=O)N[C@@H](CCC(=O)O)C(=O)N[C@@H](Cc1ccccc1)C(=O)N[C@H](C(=O)N[C@@H](CCCCN)C(=O)N[C@@H](Cc1c[nH]c2ccccc12)C(=O)N[C@@H](CC(C)C)C(=O)N[C@@H](CCC(=O)O)C(=O)N[C@@H](CO)C(=O)N[C@H](C(N)=O)[C@@H](C)O)C(C)C)[C@@H](C)O)[C@@H](C)O
B2: Compound 40 (peptide)
peptide: H-HS[Dab](Ac)GTFTSDYSKYLD[Aib]ARAEEFVKWLEST-NH2
SMILES: CC(=O)NCC[C@H](NC(=O)[C@H](CO)NC(=O)[C@@H](N)Cc1c[nH]cn1)C(=O)NCC(=O)N[C@H](C(=O)N[C@@H](Cc1ccccc1)C(=O)N[C@H](C(=O)N[C@@H](CO)C(=O)N[C@@H](CC(=O)O)C(=O)N[C@@H](Cc1ccc(O)cc1)C(=O)N[C@@H](CO)C(=O)N[C@@H](CCCCN)C(=O)N[C@@H](Cc1ccc(O)cc1)C(=O)N[C@@H](CC(C)C)C(=O)N[C@@H](CC(=O)O)C(=O)NC(C)(C)C(=O)N[C@@H](C)C(=O)N[C@@H](CCCNC(=N)N)C(=O)N[C@@H](C)C(=O)N[C@@H](CCC(=O)O)C(=O)N[C@@H](CCC(=O)O)C(=O)N[C@@H](Cc1ccccc1)C(=O)N[C@H](C(=O)N[C@@H](CCCCN)C(=O)N[C@@H](Cc1c[nH]c2ccccc12)C(=O)N[C@@H](CC(C)C)C(=O)N[C@@H](CCC(=O)O)C(=O)N[C@@H](CO)C(=O)N[C@H](C(N)=O)[C@@H](C)O)C(C)C)[C@@H](C)O)[C@@H](C)O
B3: Compound 38 (peptide)
peptide: H-HSHGTFTSDYSKYLD[Aib]ARAEEFVKWLEST-NH2
SMILES: CC(C)C[C@H](NC(=O)[C@H](Cc1c[nH]c2ccccc12)NC(=O)[C@H](CCCCN)NC(=O)[C@@H](NC(=O)[C@H](Cc1ccccc1)NC(=O)[C@H](CCC(=O)O)NC(=O)[C@H](CCC(=O)O)NC(=O)[C@H](C)NC(=O)[C@H](CCCNC(=N)N)NC(=O)[C@H](C)NC(=O)C(C)(C)NC(=O)[C@H](CC(=O)O)NC(=O)[C@H](CC(C)C)NC(=O)[C@H](Cc1ccc(O)cc1)NC(=O)[C@H](CCCCN)NC(=O)[C@H](CO)NC(=O)[C@H](Cc1ccc(O)cc1)NC(=O)[C@H](CC(=O)O)NC(=O)[C@H](CO)NC(=O)[C@@H](NC(=O)[C@H](Cc1ccccc1)NC(=O)[C@@H](NC(=O)CNC(=O)[C@H](Cc1c[nH]cn1)NC(=O)[C@H](CO)NC(=O)[C@@H](N)Cc1c[nH]cn1)[C@@H](C)O)[C@@H](C)O)C(C)C)C(=O)N[C@@H](CCC(=O)O)C(=O)N[C@@H](CO)C(=O)N[C@H](C(N)=O)[C@@H](C)O
B4: Compound 39 (peptide)
peptide: H-HS[Dab](Ac)GTFTSDYSKYLD[Aib]ARAEEFVKWLEST-OH
SMILES: CC(=O)NCC[C@H](NC(=O)[C@H](CO)NC(=O)[C@@H](N)Cc1c[nH]cn1)C(=O)NCC(=O)N[C@H](C(=O)N[C@@H](Cc1ccccc1)C(=O)N[C@H](C(=O)N[C@@H](CO)C(=O)N[C@@H](CC(=O)O)C(=O)N[C@@H](Cc1ccc(O)cc1)C(=O)N[C@@H](CO)C(=O)N[C@@H](CCCCN)C(=O)N[C@@H](Cc1ccc(O)cc1)C(=O)N[C@@H](CC(C)C)C(=O)N[C@@H](CC(=O)O)C(=O)NC(C)(C)C(=O)N[C@@H](C)C(=O)N[C@@H](CCCNC(=N)N)C(=O)N[C@@H](C)C(=O)N[C@@H](CCC(=O)O)C(=O)N[C@@H](CCC(=O)O)C(=O)N[C@@H](Cc1ccccc1)C(=O)N[C@H](C(=O)N[C@@H](CCCCN)C(=O)N[C@@H](Cc1c[nH]c2ccccc12)C(=O)N[C@@H](CC(C)C)C(=O)N[C@@H](CCC(=O)O)C(=O)N[C@@H](CO)C(=O)N[C@H](C(=O)O)[C@@H](C)O)C(C)C)[C@@H](C)O)[C@@H](C)O

These binders were tested against human glucagon receptor (human, UniProt P47871 26-477) (assay: cell-based or functional assay).
Sequence of human glucagon receptor (P47871 26-477): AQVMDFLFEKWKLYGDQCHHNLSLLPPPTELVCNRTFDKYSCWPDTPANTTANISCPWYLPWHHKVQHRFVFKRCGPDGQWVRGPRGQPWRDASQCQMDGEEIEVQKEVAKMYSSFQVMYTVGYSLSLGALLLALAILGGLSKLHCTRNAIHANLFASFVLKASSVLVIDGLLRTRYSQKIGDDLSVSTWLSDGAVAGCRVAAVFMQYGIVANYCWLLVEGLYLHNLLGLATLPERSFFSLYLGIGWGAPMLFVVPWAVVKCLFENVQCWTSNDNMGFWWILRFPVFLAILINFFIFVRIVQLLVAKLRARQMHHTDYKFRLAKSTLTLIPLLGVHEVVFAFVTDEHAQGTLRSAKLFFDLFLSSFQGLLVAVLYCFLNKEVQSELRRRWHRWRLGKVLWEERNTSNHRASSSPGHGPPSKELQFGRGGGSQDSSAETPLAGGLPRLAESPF

Going from B1 to H-HSQGTFTSDYSKYLDEARAKDFVEWLEKT-OH [Compound 5], the “GCG-R EC50 in vitro [nM] (cAMP, AlphaScreen, HEK293 cells expressing human Glucagon-R)” value (“GCG-R EC50 in vitro [nM]” for short) rises from 0.0038 nM to 0.17 nM (45-fold).

Going from B2 to H-HSQGTFTSDYSKYLDSARAEDFVAWLEST-OH [Compound 4], the “GCG-R EC50 in vitro [nM]” value rises from 0.0035 nM to 0.34 nM (97-fold).

First: B3
Second: H-HSQGTFTSDYSKYLESARAEDFVKWLEST-OH [Compound 8]
The “GCG-R EC50 in vitro [nM]” value of the first is 81-fold lower: 0.0047 nM for the first, 0.38 nM for the second.

Compared with H-HSQGTFTSDYSKYLDKARAEDFVKWLEST-OH [Compound 3], H-HSQGTFTSDYSKYLDSARAEDFVEWLEST-OH [Compound 6] is 33-fold higher in “GCG-R EC50 in vitro [nM]” value: 0.03 nM for the first, 1 nM for the second.

Compared with H-HSQGTFTSDYSRYLESARAEDFVKWLEST-OH [Compound 7], B4 is 210-fold lower in “GCG-R EC50 in vitro [nM]” value: 0.93 nM for the first, 0.0044 nM for the second.
